According to patent US20100092409A1 (DANISCO US, published 2010):
Each block holds one binder with its values, some of them ahead of it.

Key:
[1] = molecular target: T1, vascular endothelial growth factor (VEGF) (UniProt P15692-4 27-191, limits assumed, labeled with biotin for the BioVeris assay (sites not given)); experiment: BioVeris ECL competition with a labeled competitor; grade +++ = apparent IC50 about 2-10 µM
Procedure: (§1) The resulting vectors were used to transform B. subtilis BG6006 host cells. Cultures were grown in 500 ml of MBD medium and the BBI species were purified essentially as described above and by Vogtentanz et al., 2007 (Protein Expr Purif 55:40-52 [2007]). BioVeris binding assays were performed essentially as outlined in Example 5 and by the manufacturer. Binding of the modified variant BBIs to their respective target proteins was measured using a BioVeris® binding assay, which is a competition assay that determines the binding of the modified variant BBIs to its target protein (e.g. VEGF, FGF5, TGFβ and TNFα) in the presence or absence of a labeled competitor. The competitor can be a labeled monoclonal antibody raised against the target protein or a labeled native receptor of the target protein. The electrochemiluminescent binding assays were performed essentially as described in Example 5. The apparent IC50s were determined from binding data by determining the concentration of the BBI species needed to reduce the BioVeris signal by one half. BBI scaffolds without the target binding peptide in the chymotrypsin inhibitory loop were used as negative controls.

[2] = molecular target: T2, fibroblast growth factor 5 (FGF-5) (UniProt P12034 21-268, limits assumed); experiment: BioVeris ECL competition with a labeled competitor; negative control for FGF-5 binding
T2 sequence (looked up): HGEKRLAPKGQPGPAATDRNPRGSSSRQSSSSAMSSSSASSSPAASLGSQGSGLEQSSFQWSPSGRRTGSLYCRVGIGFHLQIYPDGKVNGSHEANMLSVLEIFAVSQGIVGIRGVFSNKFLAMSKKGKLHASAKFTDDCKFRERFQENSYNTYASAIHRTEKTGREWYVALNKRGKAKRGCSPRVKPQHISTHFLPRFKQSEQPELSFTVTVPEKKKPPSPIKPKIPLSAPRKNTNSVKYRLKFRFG
Procedure: as §1

[3] = molecular target: T1, vascular endothelial growth factor …; experiment: BioVeris ECL competition with a labeled competitor; negative control for VEGF binding
Procedure: as §1

[4] = molecular target: T3, transforming growth factor β1 (TGFβ1) (UniProt P01137 279-390); experiment: BioVeris ECL competition with a labeled competitor; grade ++ = apparent IC50 about 10-50 µM
T3 sequence (P01137 279-390 limits assumed): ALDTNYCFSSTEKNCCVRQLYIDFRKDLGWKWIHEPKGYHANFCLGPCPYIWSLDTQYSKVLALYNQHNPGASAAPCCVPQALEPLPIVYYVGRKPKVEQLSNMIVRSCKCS
Procedure: as §1

[5] = molecular target: T1, vascular endothelial growth factor …; experiment: as above
Procedure: as §1

[6] = molecular target: T4, tumor necrosis factor α (TNFα) (UniProt P01375 77-233); experiment: BioVeris ECL competition with a labeled competitor; grade + = apparent IC50 about 50-250 µM
T4 sequence (P01375 77-233 limits assumed): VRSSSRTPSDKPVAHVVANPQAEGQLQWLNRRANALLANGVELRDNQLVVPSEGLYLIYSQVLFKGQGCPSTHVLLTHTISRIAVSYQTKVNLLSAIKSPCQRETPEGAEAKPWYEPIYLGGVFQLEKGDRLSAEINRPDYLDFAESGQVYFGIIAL
Procedure: as §1

[7] = molecular target: T4, tumor necrosis factor α (TNFα); experiment: BioVeris ECL competition with a labeled competitor; grade ++ = apparent IC50 about 10-50 µM
Procedure: as §1

[8] = molecular target: T4, tumor necrosis factor α (TNFα); experiment: BioVeris ECL competition with a labeled competitor; negative control for TNFα binding
Procedure: as §1

[9] = molecular target: T2, fibroblast growth factor 5 (FGF-5); experiment: BioVeris ECL competition with a labeled competitor; grade ++ = apparent IC50 about 10-50 µM
Procedure: as §1

[10] = molecular target: T3, transforming growth factor β1 (TGFβ1); experiment: BioVeris ECL competition with a labeled competitor; negative control for TGFβ binding
Procedure: as §1

T1 sequence (P15692 other isoform, or with tags, fused parts or gaps limits assumed): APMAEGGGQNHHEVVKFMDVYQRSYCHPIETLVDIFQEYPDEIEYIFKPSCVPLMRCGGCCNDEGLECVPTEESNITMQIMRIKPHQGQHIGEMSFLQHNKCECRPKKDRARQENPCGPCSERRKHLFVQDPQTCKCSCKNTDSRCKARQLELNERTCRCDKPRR

IC50 [1]: 2 to 10 µM
B1: BBIt-AV (truncated BBI-AV, unmodified variant) (designed binder)
chain: DDESSKPCCDQCACTKSNPPQCRCSDMRLNSCHSACKSCACYNLYGWTCFCVDITDFCYEPCKPSE
notes: also called CT

IC50 [4]: 10 to 50 µM
B5: PEN3-Q-BBIt-TGFβ1 (designed binder)
chain: DPDDESSKPCCDQCICTKSNPPQCRCSDMRPNSCHSACKSCACPENINVLPCTCADITDFCYEPCKPSE
notes: also called BBIt-PEN3-Q-A13I-L29P-F50T-V52A

IC50 [5]: 10 to 50 µM
B10: BBIt-VEGF-V1-A13I-S25R-M27A-L29P-S31A-F50K-V52T (designed binder)
chain: DPDDESSKPCCDQCICTKSNPPQCRCRDARPNACHSACKSCACSKHSQITCKCTDITDFCYEPCKPSE
notes: also called BBIt-AV-V1
IC50 [8]: > 250 µM

IC50 [1]: 2 to 10 µM
B11: BBIt-VEGF-V2-A13I-S25R-M27A-L29P-S31A-F50K-V52T (designed binder)
chain: DPDDESSKPCCDQCICTKSNPPQCRCRDARPNACHSACKSCACKTNPSGSCKCTDITDFCYEPCKPSE
notes: also called BBIt-AV-V2

IC50 [5]: 10 to 50 µM
B12: BBIt-VEGF-V3-A13I-S25R-M27A-L29P-S31A-F50K-V52T (designed binder)
chain: DPDDESSKPCCDQCICTKSNPPQCRCRDARPNACHSACKSCACRPTGHSLCKCTDITDFCYEPCKPSE
notes: also called BBIt-AV-V3

IC50 [5]: 10 to 50 µM
B13: BBIt-VEGF-V6-A13I-S25R-M27A-L29P-S31A-F50K-V52T (designed binder)
chain: DPDDESSKPCCDQCICTKSNPPQCRCRDARPNACHSACKSCACPVTKRVHCKCTDITDFCYEPCKPSE
notes: also called BBIt-AV-V6

IC50 [9]: 10 to 50 µM
B16: MM007-Q-BBIt-FGF-5 (designed binder)
chain: DPDDESSKPCCDQCICTKSNPPQCRCSDMRPNSCHSACKSCACRTQPYPLCTCADITDFCYEPCKPSE
notes: also called BBIt-MM007-Q-A13I-L29P-F50T-V52A

IC50 [4]: 10 to 50 µM
B19: WTQ-Q-BBIt-TGFβ1 (designed binder)
chain: DPDDESSKPCCDQCICTKSNPPQCRCSDMRPNSCHSACKSCACWTQHIHNCTCADITDFCYEPCKPSE
notes: also called WTQ-BBIt-Q-TGF; BBIt-WTQ-Q-A13I-L29P-F50T-V52A

IC50 [1]: 2 to 10 µM
B23: BBIt-AV-A13I-S25K-M27A-L29R-S31A-A40H-F50R-V52L (designed binder)
chain: DPDDESSKPCCDQCICTKSNPPQCRCKDARRNACHSACKSCHCYNLYGWTCRCLDITDFCYEPCKPSE
notes: also called RL8

The remaining lines, values behind:

B2: BBtc-AV (Torresea cearensis Bowman Birk Inhibitor with CK37281 in the second protease inhibitory loop) (designed binder)
chain: DPSSKWEACCDRCACTKSIPPQCHCADIRLNSCHSACESCACYNLYGWTCRCFDITDFCYKPCSG
notes: also called BBItc-AV
IC50 [1]: 2 to 10 µM

B3: soybean Bowman-Birk Inhibitor (BBI), wild type (other)
chain: DDESSKPCCDQCACTKSNPPQCRCSDMRLNSCHSACKSCICALSYPAQCFCVDITDFCYEPCKPSEDDKEN
notes: Used as the negative control; also called sBBI; BBI-WT
IC50 [2]: > 250 µM
IC50 [3]: > 250 µM

B4: BBdb-AV (Dolichos biflorus Bowman Birk Inhibitor with CK37281 in the second protease inhibitory loop) (designed binder)
chain: DPSESSKPCCDQCACTKSIPPQCRCTDVRLNSCHSACSSCACYNLYGWTCVCVDMKDFCYEPCK
notes: also called BBIdb-AV
IC50 [1]: 2 to 10 µM

B6: BBIt-VEGF-V5-A13I-S25R-M27A-L29P-S31A-F50K-V52T (designed binder)
chain: DPDDESSKPCCDQCICTKSNPPQCRCRDARPNACHSACKSCACKPSSASSCKCTDITDFCYEPCKPSE
notes: also called BBIt-AV-V5
IC50 [5]: 10 to 50 µM

B7: BBIt-TNFα-T3-A13I-S25R-M27A-L29P-S31A-F50K-V52T (designed binder)
chain: DPDDESSKPCCDQCICTKSNPPQCRCRDARPNACHSACKSCACDMIMVSICKCTDITDFCYEPCKPSE
notes: also called BBIt-TNF-T3
IC50 [6]: 50 to 250 µM

B8: BBIt-TNFα-T2-A13I-S25R-M27A-L29P-S31A-F50K-V52T (designed binder)
chain: DPDDESSKPCCDQCICTKSNPPQCRCRDARPNACHSACKSCACAPEPILACKCTDITDFCYEPCKPSE
notes: also called BBIt-TNF-T2
IC50 [6]: 50 to 250 µM

B9: BBIt-TNFα-T1-A13I-S25R-M27A-L29P-S31A-F50K-V52T (designed binder)
chain: DPDDESSKPCCDQCICTKSNPPQCRCRDARPNACHSACKSCACRYWQDIPCKCTDITDFCYEPCKPSE
notes: also called BBIt-TNF-T1
IC50 [7]: 10 to 50 µM

B14: BBIt-VEGF-V4-A13I-S25R-M27A-L29P-S31A-F50K-V52T (designed binder)
chain: DPDDESSKPCCDQCICTKSNPPQCRCRDARPNACHSACKSCACKHSAKAECKCTDITDFCYEPCKPSE
notes: also called BBIt-AV-V4
IC50 [1]: 2 to 10 µM

B15: BBIt-AV-A13I-L29P-A40K-F50T-V52A (designed binder)
chain: DPDDESSKPCCDQCICTKSNPPQCRCSDMRPNSCHSACKSCKCYNLYGWTCTCADITDFCYEPCKPSE
notes: also called TA5; quintuple variant
IC50 [1]: 2 to 10 µM

B17: FGFps2-Q-BBIt-FGF-5 (designed binder)
chain: DPDDESSKPCCDQCICTKSNPPQCRCSDMRPNSCHSACKSCACTWIDSTPCTCADITDFCYEPCKPSE
notes: also called BBIt-FGFps2-Q-A13I-L29P-F50T-V52A
IC50 [10]: > 250 µM
IC50 [9]: 10 to 50 µM

B18: MM021W-Q-BBIt-TGFβ1 (designed binder)
chain: DPDDESSKPCCDQCICTKSNPPQCRCSDMRPNSCHSACKSCACKHNVDWLCTCADITDFCYEPCKPSE
notes: also called BBIt-MM021W-Q-A13I-L29P-F50T-V52A
IC50 [4]: 10 to 50 µM

B20: BBIt-AV-A13I-A40K-F50T-V52A (designed binder)
chain: DPDDESSKPCCDQCICTKSNPPQCRCSDMRLNSCHSACKSCKCYNLYGWTCTCADITDFCYEPCKPSE
IC50 [1]: 2 to 10 µM

B21: BBIt-AV-A13I-S25K-M27A-L29R-S31E-A40K-F50Q-V52Q (designed binder)
chain: DPDDESSKPCCDQCICTKSNPPQCRCKDARRNECHSACKSCKCYNLYGWTCQCQDITDFCYEPCKPSE
notes: also called QQ8
IC50 [1]: 2 to 10 µM

B22: BBIt-AV-A13I-S25R-M27A-L29P-S31A-A40H-F50K-V52T (designed binder)
chain: DPDDESSKPCCDQCICTKSNPPQCRCRDARPNACHSACKSCHCYNLYGWTCKCTDITDFCYEPCKPSE
notes: also called KT8
IC50 [1]: 2 to 10 µM

B24: BBIt-VEGKD-A13I-S25K-L29P-V52K (designed binder)
chain: DPDDESSKPCCDQCICTKSNPPQCRCKDMRPNSCHSACKSCICKYDLYWWCFCKDITDFCYEPCKPSE
notes: also called VegKD-Q
IC50 [1]: 2 to 10 µM
